± gives the uncertainty stated by the source.
Experiment: self-splicing fitness, log relative to wild type (ln ratio); higher = more splicing; Tetrahymena group I intron in knt gene, E. coli kanamycin selection, DiMSum; sequences stand for … in CUCUCU…GGAGGGAAAAGUUAUCAGGCAUGCACCUGGUAGCUAGUCUUUAAACCAAUAGAUUGCAUCGGUUUAAAAGGCAAGACCGUCAAAUUGCGGGAAAGGGGUCAACAGCCGUUCAGUACCAAGUCUCAGGGGAAACUUUGAGAUGGCCUUGCAAAGGGUAUGGUAAUAAGCUGACGGACAUGGUCCUAACCACGCAGCCAAGUCCUAAGUCAACAGAUCUUCUGUUGAUAUGGAUGCAGUUCACAGACUAAAUGUCGGUCGGGGAAGAUGUAUUCUUCUCAUAAGAUAUAGUCGGACCUCUCCUUAAUGGGAGCUAGCGGAUGAAGUGAUGCAACACUGGAGCCGCUGGGAACUAAUUUGUAUGCGAAAGUAUAUUGAUUAGUUUUGGAGUACUCGUGGUCG
Procedure, shortened: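 DiMSum derived fitness as the error-weighted combination of fold changes across replicates, kanamycin versus no kanamycin, normalised to wild type. E. coli BL21(DE3) held the library, which randomised all eight P1ex-region intron nucleotides within the knt kanamycin-resistance gene on pET-22b(+). Six replicate transformations grew overnight at 37°C or 30°C on LB agar with or without 25 μg/mL kanamycin, also containing 100 μg/mL carbenicillin, 50 μM IPTG and 0.2% rhamnose, and pooled colonies were amplicon-sequenced on an Illumina HiSeq 2500.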

Row | Sequence | self-splicing fitness (ln) (30 °C) | self-splicing fitness (ln) (37 °C)
1 | UCUCAGCAAUAUUACGAAAC | -2.16 ± 0.26 | -2.29 ± 0.5
2 | UCUCAGCAAUAUUACGAAGA | -1.98 ± 0.15 | -1.21 ± 0.15
3 | UCUCAGCAAUAUUACGACUU | -1.63 ± 0.073 | -1.75 ± 0.11
4 | UCUCAGCAAUAUUACGAGGC |  | -1.54 ± 0.36
5 | UCUCAGCAAUAUUACGCCCU | -2.5 ± 0.35 | -2 ± 0.44
6 | UCUCAGCAAUAUUACGCGAA | -2.12 ± 0.17 | -1.85 ± 0.21
7 | UCUCAGCAAUAUUACGCUCA |  | -1.48 ± 0.43
8 | UCUCAGCAAUAUUACGCUGC | -3.83 ± 0.21 | -2.06 ± 0.17
9 | UCUCAGCAAUAUUACGCUUG | -3.17 ± 0.16 | -3.32 ± 0.33
10 | UCUCAGCAAUAUUACGCUUU | -3.09 ± 0.3 | -2.22 ± 0.31
11 | UCUCAGCAAUAUUACGGCAA | -2.86 ± 0.25 | -2.44 ± 0.17
12 | UCUCAGCAAUAUUACGGGGG | -3.53 ± 0.27 | -2.02 ± 0.2
13 | UCUCAGCAAUAUUACGGUAA | -2.11 ± 0.14 | -1.02 ± 0.12
14 | UCUCAGCAAUAUUACGGUCU | -3.23 ± 0.2 | -1.74 ± 0.15
15 | UCUCAGCAAUAUUACGUCAA | -3.21 ± 0.27 | -2.35 ± 0.21
16 | UCUCAGCAAUAUUACGUCAC | -3.75 ± 0.19 | -2.55 ± 0.17
17 | UCUCAGCAAUAUUACGUCCA | -2.72 ± 0.16 | -1.35 ± 0.2
18 | UCUCAGCAAUAUUACGUCGC | -2.22 ± 0.23 | -2.47 ± 0.33
19 | UCUCAGCAAUAUUACGUGCA | -0.751 ± 0.065 | -0.0852 ± 0.071
20 | UCUCAGCAAUAUUACGUGCU | -4.22 ± 0.23 | -2.61 ± 0.2
21 | UCUCAGCAAUAUUACGUGGC | -3.61 ± 0.31 | -2.55 ± 0.28
22 | UCUCAGCAAUAUUACGUGUC | -3.41 ± 0.14 | -3.2 ± 0.17
23 | UCUCAGCAAUAUUACGUUCG | -3.46 ± 0.2 | -2.28 ± 0.25
24 | UCUCAGCAAUAUUACGUUGA | -2.9 ± 0.2 | -2.93 ± 0.24
25 | UCUCAGCAAUAUUACGUUGU | -3.71 ± 0.21 | -3.39 ± 0.21

Row | Sequence | self-splicing fitness (ln) (30 °C) | self-splicing fitness (ln) (37 °C)
26 | UCUGAGCAAUAUUACGAACA | -3.18 ± 0.34 | -3.46 ± 0.35
27 | UCUGAGCAAUAUUACGAGAU | -3.79 ± 0.37 | -2.48 ± 0.3
28 | UCUGAGCAAUAUUACGAGUU | -2.13 ± 0.25 | 
29 | UCUGAGCAAUAUUACGAUAA |  | -2.05 ± 0.43
30 | UCUGAGCAAUAUUACGAUUA | -1.85 ± 0.17 | -1.49 ± 0.21
31 | UCUGAGCAAUAUUACGCUAC | -3.66 ± 0.3 | -3.09 ± 0.47
32 | UCUGAGCAAUAUUACGCUCG | -3.7 ± 0.37 | -0.349 ± 0.23
33 | UCUGAGCAAUAUUACGCUCU | -2.96 ± 0.46 | 
34 | UCUGAGCAAUAUUACGGAAU | -3.33 ± 0.34 | -1.88 ± 0.27
35 | UCUGAGCAAUAUUACGGGAC | -2.86 ± 0.4 | -2.37 ± 0.23
36 | UCUGAGCAAUAUUACGGUCG | -4.19 ± 0.33 | -2.67 ± 0.28
37 | UCUGAGCAAUAUUACGUAAA | -3.29 ± 0.19 | -1.69 ± 0.18
38 | UCUGAGCAAUAUUACGUAGA | -0.966 ± 0.1 | -0.205 ± 0.14
39 | UCUGAGCAAUAUUACGUAUC | -3.62 ± 0.25 | -1.69 ± 0.25
40 | UCUGAGCAAUAUUACGUGGG | -2.78 ± 0.14 | -0.918 ± 0.11
41 | UCUUAGCAAUAUUACGAACU | -2.7 ± 0.36 | -1.84 ± 0.25
42 | UCUUAGCAAUAUUACGAAGA | -3.02 ± 0.49 | -2.64 ± 0.38
43 | UCUUAGCAAUAUUACGAAUG | -2.87 ± 0.43 | -2.01 ± 0.38
44 | UCUUAGCAAUAUUACGAGAC | -2.23 ± 0.25 | 
45 | UCUUAGCAAUAUUACGAGUA | -0.787 ± 0.26 | -1.19 ± 0.27
46 | UCUUAGCAAUAUUACGAUGC | -2.66 ± 0.3 | 
47 | UCUUAGCAAUAUUACGAUUG | -2.74 ± 0.22 | -1.23 ± 0.18
48 | UCUUAGCAAUAUUACGCCUC |  | -2.31 ± 0.45
49 | UCUUAGCAAUAUUACGCGUC | -4.03 ± 0.33 | 
50 | UCUUAGCAAUAUUACGCUAU | -4.16 ± 0.25 | -2.03 ± 0.18

Row | Sequence | self-splicing fitness (ln) (30 °C) | self-splicing fitness (ln) (37 °C)
51 | UCUUAGCAAUAUUACGGCUA | -2.85 ± 0.41 | -2.34 ± 0.42
52 | UCUUAGCAAUAUUACGGCUG | -2.71 ± 0.28 | 0.118 ± 0.24
53 | UCUUAGCAAUAUUACGUAAA | -3.58 ± 0.29 | -2.38 ± 0.25
54 | UCUUAGCAAUAUUACGUAGU | -2.27 ± 0.13 | -1.35 ± 0.14
55 | UCUUAGCAAUAUUACGUCUG | -2.67 ± 0.22 | -2.95 ± 0.37
56 | UCUUAGCAAUAUUACGUCUU | -3.21 ± 0.32 | -3 ± 0.27
57 | UCUUAGCAAUAUUACGUGAA | -1.9 ± 0.2 | -2.82 ± 0.43
58 | UCUUAGCAAUAUUACGUUCC | -3.4 ± 0.3 | 
59 | UGAAAGCAAUAUUACGAAAA | -2.53 ± 0.23 | -1.14 ± 0.16
60 | UGAAAGCAAUAUUACGAAGA | -2.23 ± 0.3 | -0.283 ± 0.19
61 | UGAAAGCAAUAUUACGACCG | -0.0402 ± 0.16 | 0.0392 ± 0.2
62 | UGAAAGCAAUAUUACGACGC | -2.04 ± 0.19 | 0.0256 ± 0.17
63 | UGAAAGCAAUAUUACGAGAC |  | -1.65 ± 0.38
64 | UGAAAGCAAUAUUACGAUCG | -0.144 ± 0.15 | 0.0927 ± 0.17
65 | UGAAAGCAAUAUUACGCAUG | -0.902 ± 0.079 | -0.484 ± 0.091
66 | UGAAAGCAAUAUUACGCGAC | -2.33 ± 0.42 | -2.08 ± 0.38
67 | UGAAAGCAAUAUUACGCGAG | -1.63 ± 0.11 | -0.0143 ± 0.1
68 | UGAAAGCAAUAUUACGCUCU | -2.48 ± 0.17 | -1.37 ± 0.18
69 | UGAAAGCAAUAUUACGGAAC | -2.58 ± 0.22 | -0.53 ± 0.25
70 | UGAAAGCAAUAUUACGGAGG | -3.75 ± 0.2 | -2.72 ± 0.26
71 | UGAAAGCAAUAUUACGGCAC | -3.23 ± 0.16 | -1.48 ± 0.14
72 | UGAAAGCAAUAUUACGGCCA | -0.0769 ± 0.21 | 0.0533 ± 0.28
73 | UGAAAGCAAUAUUACGGCUA | 0.376 ± 0.092 | 0.259 ± 0.11
74 | UGAAAGCAAUAUUACGUAUC | -3.86 ± 0.28 | -2.38 ± 0.25
75 | UGAAAGCAAUAUUACGUGAU | -0.954 ± 0.077 | -1.45 ± 0.13

Row | Sequence | self-splicing fitness (ln) (30 °C) | self-splicing fitness (ln) (37 °C)
76 | UGAAAGCAAUAUUACGUGCC | -0.125 ± 0.12 | -0.826 ± 0.15
77 | UGAAAGCAAUAUUACGUUAA | -1.45 ± 0.089 | -0.938 ± 0.09
78 | UGAAAGCAAUAUUACGUUAG | -1.1 ± 0.086 | -0.448 ± 0.096
79 | UGAAAGCAAUAUUACGUUCU | -1.37 ± 0.11 | -0.484 ± 0.1
80 | UGAAAGCAAUAUUACGUUGA | -3.13 ± 0.17 | -1.23 ± 0.15
81 | UGACAGCAAUAUUACGAAGA | -3.28 ± 0.27 | -0.756 ± 0.16
82 | UGACAGCAAUAUUACGAGCA | -0.681 ± 0.051 | 0.236 ± 0.064
83 | UGACAGCAAUAUUACGAGGG | -3.73 ± 0.44 | -2.11 ± 0.35
84 | UGACAGCAAUAUUACGAUGC | -3.94 ± 0.28 | -2.72 ± 0.28
85 | UGACAGCAAUAUUACGAUUG | -0.875 ± 0.061 | -0.525 ± 0.067
86 | UGACAGCAAUAUUACGCAAU | -2.38 ± 0.12 | -1.84 ± 0.16
87 | UGACAGCAAUAUUACGCACG | -0.996 ± 0.093 | -0.312 ± 0.14
88 | UGACAGCAAUAUUACGCCCA | 0.217 ± 0.12 | 0.269 ± 0.16
89 | UGACAGCAAUAUUACGCCCG | -0.421 ± 0.12 | 0.601 ± 0.2
90 | UGACAGCAAUAUUACGCCGA | -1.44 ± 0.17 | -0.0813 ± 0.17
91 | UGACAGCAAUAUUACGCGCC | -1.63 ± 0.12 | -0.153 ± 0.15
92 | UGACAGCAAUAUUACGCGCG | -1.15 ± 0.1 | -0.132 ± 0.11
93 | UGACAGCAAUAUUACGCUGC | -4.45 ± 0.25 | -2.65 ± 0.18
94 | UGACAGCAAUAUUACGGAAG | -2.29 ± 0.11 | -1.19 ± 0.12
95 | UGACAGCAAUAUUACGGACA | -0.474 ± 0.08 | 0.431 ± 0.12
96 | UGACAGCAAUAUUACGGCAU | -1.88 ± 0.073 | -0.478 ± 0.087
97 | UGACAGCAAUAUUACGGCGU | -2.71 ± 0.15 | -1.67 ± 0.16
98 | UGACAGCAAUAUUACGGGAG | -1.59 ± 0.062 | -0.0844 ± 0.061

Reference: the supplement of paper PMC7877785
